# How the values were obtained:
# [1] = system: C-MBP dimer (MBP variant with a cysteine on the third residue, disulfide-linked N-terminus to N-terminus homodimer)
# [2] = system: MBP-1 (His-tagged Maltose Binding Protein with C-terminal leader: polyglycine stall, polyarginine capture, ssrA recognition motif)
# [3] = system: MBP-C chemically tagged on its C-terminal cysteine with the maleimide Peptide-2 tag
# [4] = system: mNG-HTH (mNG with a helix-turn-helix blocking domain and ssrA tag)
# [5] = system: mNG-alpha_helix (mNG with an alpha-helical blocking domain and ssrA tag)
# [6] = system: mNG-beta_hairpin (mNG with a hairpin blocking domain and ssrA tag)
# [7] = system: {MBP}-{MBP-1}, genetic fusion protein of two MBP proteins (805 amino acids, 88 kDa)
substance,measurement,setting,value
"E. coli ClpX, N-terminal truncated variant (residues 61-423)",nanopore read of the disulfide-linked dimer with ClpX and ATP in cis,[1],"After reading the first monomer of C-MBP, the unfoldase was able to pass through the disulfide bond, after which it reads the second C-MBP monomer in the N- to C-terminus direction"
same,ClpX controlled translocation with 1M KGlu in cis and 1 M KCl in trans,[2],ClpX controlled MBP-1 translocations were obtained from CytK 4D2E nanopores systems with 1M KGlu in the cis and 1 M KCl in trans
same,ClpX-controlled translocation of MBP-1 through the nanopore (ionic current),[2],clear and consistent capture and subsequent ClpX-controlled translocation of MBP-1 was observed
same,rate of ClpX translocating along the polypeptide,[2],about 12-15 aa/second in these conditions
same,trans-to-cis ClpX controlled translocation (ionic current),[2],characteristic ClpX controlled MBP-1 translocation events occurred trans-to-cis
same,translocation with 2.5 mM Gamma-S-ATP in place of ATP,[2],long blockades that never progressed to the changing current levels phase associated with ClpX translocase controlled movement of polypeptide that was observed under regular ATP conditions
same,ClpX controlled translocation of tagged MBP (ionic current),[3],ClpX controlled MBP translocations (marked by arrows) are evident from the characteristic pattern of changing ionic current signals
same,fluorescence over time at 37° C. after adding ClpX and ATP,[4],no decrease in fluorescence
same,fluorescence over time at 37° C. after adding ClpX and ATP,[5],no decrease in fluorescence
same,fluorescence over time at 37° C. after adding ClpX and ATP,[6],no decrease in fluorescence
same,full length single-molecule reads with ClpX and ATP in cis,[7],full length reads of the protein were reliably obtained

# Reference: patent publication US20250369044
